From US5919666

How the values were obtained:
[1] = target: RNA polymerase II (calf thymus) (bovine (calf thymus)); assay: cofractionation during purification from calf thymus, Western blot
[2] = target: mammalian RNA polymerase II holoenzyme (calf thymus)
[3] = target: RNA polymerase II holoenzyme (yeast)

| percent of the RNA polymerase II associated with SRB7 [1] | Substance | in vitro transcription from the adenovirus major late promoter with 3 Gal4 binding sites, with coactivators HMG-2 or PC4 [2] | in vitro transcription from a template with a GAL4 site, reconstituted with holoenzyme, factor a and TBP [3] |
| --- | --- | --- | --- |
| > 20% | bovine SRB7 (from UniProt Q2TBU8) | – | – |
| – | GAL4-VP16 (from UniProt P04386) | 5 fold | 5 fold |
